Substitutions are numbered along the chain they refer to. Numbered stars: 1 amine (or outer) side, 2 acyl side, 3 side chain; on linkers, the order of the positions; unused ones are H or OH. Bridge positions count the residues as written; N and C are the ends. * marks the point of attachment. C20 diacid = O=C(O)CCCCCCCCCCCCCCCCCCC(=O)*; γGlu = O=C(O)[C@H](CCC(=O)[*:2])N[*:1]
T1: human calcitonin receptor (human, UniProt P30988 25-474)
T1 construct: whole, on cells; Membranes of a BHK tk'ts 13 cell line stably transfected with the human calcitonin receptor; also called hCTR; hCT
T1 sequence (looked up): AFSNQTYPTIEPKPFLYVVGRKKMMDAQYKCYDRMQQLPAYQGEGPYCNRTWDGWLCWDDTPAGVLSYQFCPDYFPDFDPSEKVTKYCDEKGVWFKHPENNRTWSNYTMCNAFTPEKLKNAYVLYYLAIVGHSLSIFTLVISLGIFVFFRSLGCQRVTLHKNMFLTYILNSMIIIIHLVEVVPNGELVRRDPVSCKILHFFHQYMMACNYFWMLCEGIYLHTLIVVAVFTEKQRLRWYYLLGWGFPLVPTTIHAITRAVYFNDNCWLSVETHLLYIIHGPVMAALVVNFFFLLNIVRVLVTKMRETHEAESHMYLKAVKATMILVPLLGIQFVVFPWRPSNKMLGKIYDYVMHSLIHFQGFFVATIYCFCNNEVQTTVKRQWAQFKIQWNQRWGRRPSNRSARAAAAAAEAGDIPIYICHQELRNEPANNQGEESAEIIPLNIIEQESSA

T2: rat calcitonin receptor (rat, UniProt P32214 25-516)
T2 construct: whole, on cells; Membranes of BHK tk'ts 13 cells transiently transfected with the rat calcitonin receptor; also called rCTR; rat calcitonin (a) receptor
T2 sequence (looked up): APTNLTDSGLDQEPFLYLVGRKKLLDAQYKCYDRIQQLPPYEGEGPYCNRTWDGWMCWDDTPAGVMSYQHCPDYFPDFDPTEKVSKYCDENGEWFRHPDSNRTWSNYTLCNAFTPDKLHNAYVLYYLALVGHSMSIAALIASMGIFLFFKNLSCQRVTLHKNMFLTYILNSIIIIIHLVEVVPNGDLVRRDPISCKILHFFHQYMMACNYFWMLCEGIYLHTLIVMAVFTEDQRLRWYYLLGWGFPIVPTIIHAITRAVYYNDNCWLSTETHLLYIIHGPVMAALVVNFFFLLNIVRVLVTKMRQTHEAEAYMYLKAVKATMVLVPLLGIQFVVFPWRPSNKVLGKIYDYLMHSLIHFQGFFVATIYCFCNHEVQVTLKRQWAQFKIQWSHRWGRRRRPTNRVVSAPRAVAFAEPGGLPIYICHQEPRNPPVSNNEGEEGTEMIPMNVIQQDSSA

T3: rat amylin receptor (rat calcitonin receptor + rat RAMP 3) (rat, UniProt P32214 25-516; Q9JJ73 23-147)
T3 construct: whole, on cells; Membranes of BHK tk'ts 13 cells transiently transfected with the rat calcitonin receptor and rat RAMP 3; also called rAmylin-R; rat amylin 3(a) receptor
T3 sequence (looked up) 1: T2 sequence (looked up)
T3 sequence (looked up) 2: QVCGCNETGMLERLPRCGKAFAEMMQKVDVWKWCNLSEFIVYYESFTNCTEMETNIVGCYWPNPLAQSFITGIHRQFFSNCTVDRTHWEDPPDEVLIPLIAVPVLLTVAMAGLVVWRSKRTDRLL

B1: N^α1-[2-[2-[2-[[2-[2-[2-[[(4S)-4-carboxy-4-(19-carboxynonadecanoylamino)butanoyl]amino]ethoxy]ethoxy]acetyl]amino]ethoxy]ethoxy]acetyl]-[Glu14,Arg17,Pro21,Pro27 … (peptide)
peptide: KCNTATCATQRLAEFLRHSSPNFGAIPSSTNVGSNTY
modifications: C20 diacid-gGlu-2xOEG on the alpha amino group of the N-terminal residue (Lys 1); disulfide bridge Cys2-Cys7; C-terminal amide
notes: modifications are with respect to human amylin; also called compound 19
B2: N^α1-[(4S)-4-carboxy-4-(19-carboxynonadecanoylamino)butanoyl]-[Arg17,Pro21,Pro27,Arg34]-h-amylin (peptide)
peptide: B1 peptide with E14N, S34R
modifications: C20 diacid-gGlu on the alpha amino group of the N-terminal residue (Lys 1); disulfide bridge Cys2-Cys7; C-terminal amide
notes: modifications are with respect to human amylin; also called compound 39
B3: N^α1-[(4S)-4-carboxy-4-(19-carboxynonadecanoylamino)butanoyl]-[Arg17,Pro21,Pro27,Glu35]-h-amylin (peptide)
peptide: B1 peptide with E14N, N35E
modifications: C20 diacid-gGlu on the alpha amino group of the N-terminal residue (Lys 1); disulfide bridge Cys2-Cys7; C-terminal amide
notes: modifications are with respect to human amylin; also called compound 23
B4: N^α1-[(4S)-4-carboxy-4-(19-carboxynonadecanoylamino)butanoyl]-[Arg17,Pro21,Pro27,His34]-h-amylin (peptide)
peptide: B1 peptide with E14N, S34H
modifications: C20 diacid-gGlu on the alpha amino group of the N-terminal residue (Lys 1); disulfide bridge Cys2-Cys7; C-terminal amide
notes: modifications are with respect to human amylin; also called compound 40
B5: N^α1-[(4S)-4-carboxy-4-(19-carboxynonadecanoylamino)butanoyl]-[Arg17,Pro21,Pro27,Lys35]-h-amylin (peptide)
peptide: B1 peptide with E14N, N35K
modifications: C20 diacid-gGlu on the alpha amino group of the N-terminal residue (Lys 1); disulfide bridge Cys2-Cys7; C-terminal amide
notes: modifications are with respect to human amylin; also called compound 34
B6: N^α1-[(4S)-4-carboxy-4-(19-carboxynonadecanoylamino)butanoyl]-[Arg17,Pro21,Pro27,Pro31,Glu35]-h-amylin (peptide)
peptide: {C20 diacid-γGlu}-KCNTATCATQRLANFLRHSSPNFGAIPSSTPVGSETY-NH2
modifications: disulfide 2-7
SMILES: CC[C@H](C)[C@H](NC(=O)[C@H](C)NC(=O)CNC(=O)[C@H](Cc1ccccc1)NC(=O)[C@H](CC(N)=O)NC(=O)[C@@H]1CCCN1C(=O)[C@H](CO)NC(=O)[C@H](CO)NC(=O)[C@H](Cc1c[nH]cn1)NC(=O)[C@H](CCCNC(=N)N)NC(=O)[C@H](CC(C)C)NC(=O)[C@H](Cc1ccccc1)NC(=O)[C@H](CC(N)=O)NC(=O)[C@H](C)NC(=O)[C@H](CC(C)C)NC(=O)[C@H](CCCNC(=N)N)NC(=O)[C@H](CCC(N)=O)NC(=O)[C@@H](NC(=O)[C@H](C)NC(=O)[C@@H]1CSSC[C@H](NC(=O)[C@H](CCCCN)NC(=O)CC[C@H](NC(=O)CCCCCCCCCCCCCCCCCCC(=O)O)C(=O)O)C(=O)N[C@@H](CC(N)=O)C(=O)N[C@@H]([C@@H](C)O)C(=O)N[C@@H](C)C(=O)N[C@@H]([C@@H](C)O)C(=O)N1)[C@@H](C)O)C(=O)N1CCC[C@H]1C(=O)N[C@@H](CO)C(=O)N[C@@H](CO)C(=O)N[C@H](C(=O)N1CCC[C@H]1C(=O)N[C@H](C(=O)NCC(=O)N[C@@H](CO)C(=O)N[C@@H](CCC(=O)O)C(=O)N[C@H](C(=O)N[C@@H](Cc1ccc(O)cc1)C(N)=O)[C@@H](C)O)C(C)C)[C@@H](C)O
notes: modifications are with respect to human amylin; also called compound 28
B7: N^α1-[(4S)-4-carboxy-4-(19-carboxynonadecanoylamino)butanoyl]-[Arg17,Pro21,Pro27,Pro34,Glu35]-h-amylin (peptide)
peptide: {C20 diacid-γGlu}-KCNTATCATQRLANFLRHSSPNFGAIPSSTNVGPETY-NH2
modifications: disulfide 2-7
SMILES: CC[C@H](C)[C@H](NC(=O)[C@H](C)NC(=O)CNC(=O)[C@H](Cc1ccccc1)NC(=O)[C@H](CC(N)=O)NC(=O)[C@@H]1CCCN1C(=O)[C@H](CO)NC(=O)[C@H](CO)NC(=O)[C@H](Cc1c[nH]cn1)NC(=O)[C@H](CCCNC(=N)N)NC(=O)[C@H](CC(C)C)NC(=O)[C@H](Cc1ccccc1)NC(=O)[C@H](CC(N)=O)NC(=O)[C@H](C)NC(=O)[C@H](CC(C)C)NC(=O)[C@H](CCCNC(=N)N)NC(=O)[C@H](CCC(N)=O)NC(=O)[C@@H](NC(=O)[C@H](C)NC(=O)[C@@H]1CSSC[C@H](NC(=O)[C@H](CCCCN)NC(=O)CC[C@H](NC(=O)CCCCCCCCCCCCCCCCCCC(=O)O)C(=O)O)C(=O)N[C@@H](CC(N)=O)C(=O)N[C@@H]([C@@H](C)O)C(=O)N[C@@H](C)C(=O)N[C@@H]([C@@H](C)O)C(=O)N1)[C@@H](C)O)C(=O)N1CCC[C@H]1C(=O)N[C@@H](CO)C(=O)N[C@@H](CO)C(=O)N[C@H](C(=O)N[C@@H](CC(N)=O)C(=O)N[C@H](C(=O)NCC(=O)N1CCC[C@H]1C(=O)N[C@@H](CCC(=O)O)C(=O)N[C@H](C(=O)N[C@@H](Cc1ccc(O)cc1)C(N)=O)[C@@H](C)O)C(C)C)[C@@H](C)O
notes: modifications are with respect to human amylin; also called compound 29

molecular target: T1, human calcitonin receptor; experiment: IC50 at hCTR divided by IC50 at hAmylin-R (reference)
Description: The resulting pellet was resuspended, homogenized and centrifuged (20.000 rpm, 15 min) in a buffer containing 20 mM Na-HEPES and 0.1 mM EDTA (pH 7.4, buffer 2). The resulting pellet was resuspended in buffer 2 and protein concentration was measured (BCA protein Assay, Pierce). The homogenate was kept cold during the whole procedure. The membranes were kept at −80° C. until use. The assay was performed in a 384 well Optiplate (PerkinElmer) in a total volume of 40 ul. Membranes were mixed with SPA beads. Final concentration of membranes 35 ng/μL final and SPA beads was 0.05 mg/well. Test-compounds were dissolved in DMSO and further diluted in assay buffer (50 mM Hepes, pH 7.4, 1 mM CaCl2, 5 mM MgCl₂, 0.1% OA and 0.02% Tween20). […] The final mixture was incubated with shaking at 400 rpm for 120 min at 25° C. prior to centrifugation (1500 rpm, 10 min). Samples were analyzed on TopCounter™ (Packard). The IC₅₀ was calculated using (one site binding competition analysis) GraphPad Prism5 as a measure of receptor affinity.
Membranes were prepared in the following way; the cells were rinsed with PBS and incubated with Versene for approximately 5 min before harvesting. The cells were flushed with PBS and the cell-suspension was centrifuged for 5 min at 1000 rpm. Cells were homogenized (Ultrathurrax) in a buffer containing 20 mM Na-HEPES and 10 mM EDTA (pH 7.4) and centrifuged at 20.000 rpm for 15 min. The resulting pellet was resuspended, homogenized and centrifuged (20.000 rpm, 15 min) in a buffer containing 20 mM Na-HEPES and 0.1 mM EDTA (pH 7.4, buffer 2). The resulting pellet was resuspended in buffer 2 and protein concentration was measured (BCA protein Assay, Pierce). The homogenate was kept cold during the whole procedure. The membranes were kept at −80° C. until use. Assay was performed in a 384 well Optiplate (PerkinElmer) in a total volume of 40 ul. Membranes were mixed with SPA beads.

Binder	Ratio hCT/hAmylin binding
B1	36.7
B2	29
B3	25
B4	31.1
B5	64.4
B6	20.5
B7	13.9

molecular target: T2, rat calcitonin receptor; experiment: IC50 at rCTR divided by IC50 at rAmylin-R (reference)

Binder	Ratio rCT/rAmylin binding
B1	93.6
B2	54.5
B3	71.3
B4	46.2
B5	52
B6	44.9
B7	67

molecular target: T2, rat calcitonin receptor; experiment: SPA competition vs 125I-calcitonin, membranes with rat CTR (Assay VIII)

Binder	IC50
B1	95.6 nM
B2	96.4 nM
B3	79.9 nM
B4	69.2 nM
B5	89.2 nM
B6	54.9 nM
B7	21.6 nM

molecular target: T3, rat amylin receptor (rat calcitonin …); experiment: SPA competition vs 125I-rat amylin, membranes with rat CTR + rat RAMP3 (Assay VI)
Description: The binding assay was performed using scintillation proximity assay (SPA) beads (RPNQ0001) from PerkinElmer and cell membranes from the Amylin 3(a)/CRE-luc cells (as described in Assay (II)) were used. Membranes were prepared in the following way; the cells were rinsed with PBS and incubated with Versene for approximately 5 min before harvesting. The cells were flushed with PBS and the cell-suspension was centrifuged for 5 min at 1000 rpm. Cells were homogenized (ultrathurrax) in a buffer containing 20 mM Na-HEPES and 10 mM EDTA (pH 7.4) and centrifuged at 20.000 rpm for 15 min. The resulting pellet was resuspended, homogenized and centrifuged (20.000 rpm, 15 min) in a buffer containing 20 mM Na-HEPES and 0.1 mM EDTA (pH 7.4, buffer 2). The resulting pellet was resuspended in buffer 2 and protein concentration was measured (BCA protein Assay, Pierce). The homogenate was kept cold during the whole procedure. The membranes were kept at −80° C. until use. The assay was performed in a 384 well Optiplate (PerkinElmer) in a total volume of 40 ul. Membranes were mixed with SPA beads. Final concentration of membranes 35 ng/μL final and SPA beads was 0.05 mg/well. Test-compounds were dissolved in DMSO and further diluted in assay buffer (50 mM Hepes, pH 7.4, 1 mM CaCl2, 5 mM MgCl₂, 0.1% OA and 0.02% Tween20). […] The final mixture was incubated with shaking at 400 rpm for 120 min at 25° C. prior to centrifugation (1500 rpm, 10 min). Samples were analyzed on TopCounter™ (Packard). The IC₅₀ was calculated using (one site binding competition analysis) GraphPad Prism5 as a measure of receptor affinity.
Cells were grown in DMEM with 10% FBS and 1% Pen/Strep. Approximately 48 hours after transfection, the cells were harvested and membranes were prepared.

Binder	IC50
B1	1.02 nM
B2	1.77 nM
B3	1.12 nM
B4	1.5 nM
B5	1.72 nM
B6	1.22 nM
B7	0.322 nM

— patent US20140087995A1 (published 2014)
